Test results: the nanobody polyreactivity screen of Harvey et al. (2022)

Experiment: yeast display, Sf9 membrane polyspecificity reagent, FACS + sequencing; frameworks hold sequencing errors
Summary of the method: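 Nanobodies came from a synthetic yeast display library in Saccharomyces cerevisiae BJ5465, induced with galactose for 36–48 hours and stained for 1 hour at 4 °C with 10% biotinylated, detergent-solubilized Sf9 membrane reagent. Cells were enriched on streptavidin microbeads and then FACS-sorted, with low and high (top ~1%) gates set on anti-HA fluorescence for expression and streptavidin fluorescence for reagent binding. Each polyreactivity label reflects the gate a clone came from. Genes were amplified by colony PCR, sequenced by MiSeq 2 × 250 and filtered by CDR length.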

QVHLVESGGGLVQAGGSLRLSCAASGRTFRKYAMGWYRQAPGKERELVAAISSSGGRTYYADSVKGRFTISRDNAKNTVYLQMNSLKPEDTAVYYCAAKQGNRNSYKYDYWGQGTQVTVSS
polyreactivity (PSR sort gate): high polyreactivity

QVQLVESGGGLVQSGGSLRLSCAASGSIFYTNAMGWYRQAPGKERELVAAISYGGTTTYADSVKGRFTISRDNAKNTVYLQMNSQKPEDTAVYYCNADWLYYGYWGYGHIWYDYWGQGTQVTVSS
polyreactivity (PSR sort gate): low polyreactivity

QVQLVESGGGLVQAGGSLRLSCAASGRTFYDYAMGWYRQAPGKERELVAAISRRAGSTYYADSVKGRFTISRDNAKNTVYLQMNSLKPEDTAVYYCAAAYYRRWWRGHHYAFDYWGQGTQVTVSS
polyreactivity (PSR sort gate): high polyreactivity

QVQLVESGGGLVQAGGSLSFSCAASGFIFRAYTMGWYRQAPGKERELVAAITSSGGRTYYADSVKGRFTISRDNAKNSVYLQMNSLKPEDTAVYYCATVYAKWKQFDYWGQGTQVTVSS
polyreactivity (PSR sort gate): high polyreactivity

QVQLVESGGGLVLAGGSLRLSCAASGIIFYRNAMGWYRQAPGKERELVAAITSSGGRTYYADSVKGRFTISRDNAKNTVYLQMNSLKPEDTAVYYCAATRMYWKIFYGDGDYWGQGTQVTVST
polyreactivity (PSR sort gate): high polyreactivity

QVQLVESGGGLVQAGGSLRLSCAASGSTFVYNAMGWYRQAPGKERELVAGISSSGGRTYYADSVKGRFTISRDNAKNTVYLQMNSLKPEDTAVYYCNVVTYRRFDYWGQGTQVTVSS
polyreactivity (PSR sort gate): low polyreactivity

QVQLVESGGGLVQAGGSLRLSCAASGFIFPWNAMGWYRQAPGKERELVAAISFSGGSTYYADSVKGRFTISRDNAKNTVYLQMNSLKPEDTAVYYCAKRTWDLRRTRHYYWGQGTQVTVSS
polyreactivity (PSR sort gate): low polyreactivity

QVQLVESGACLVKAGGSLRLSCAASGSSFYGYAMGWYRQAPGKERELVASITVSVGSTNADSVKGRFTISRDNAKNTVYLQMISLKPEDTAVYYCAAETVHSREQREGDYWGQGTQVSVSS
polyreactivity (PSR sort gate): low polyreactivity

QVQLVESGGGLVQAGGSLRLSCAASGRTFRGNAMGWYRQAPGKERELVAAIRYRGGSTYYADSVKGRFTISRDNAKNTVYLQMNSLKPEDTAVYYCARRYTVHTQHYDYWGQGTQVTVSS
polyreactivity (PSR sort gate): high polyreactivity

QVQLVESGGGLVQAGGSLRLSCAASGFIFYQYAMGWYRQAPGKERELVAAISRRGGGTYYADSVKGRFTISRDNAKNTVYLQMNSLKPEDTAVYYCNTDRLARITFGGYDYWGQGTQVTVSS
polyreactivity (PSR sort gate): high polyreactivity

QVQLVESGGGLVQAGGILRLSCAASGRTFGLYAMGWYRQAPGKERELVASITRSGVSTTYADSVKGRFTISRDNAKNTVYLQMNSLKPVDTAVYYCNTDYTGPDGTDEYDYWGQGTQVTVSS
polyreactivity (PSR sort gate): low polyreactivity

QVQLVESGGGLVQAGGTLRLSCAASGLIFFFYAMGWYRQAPGKERELVAAISDDGVSTDYADSVKGRFTISRDNAKNTVYLQMNSLKPEDTAVYYCAAKTERVYPWFSFGYWGQGTQVTVSS
polyreactivity (PSR sort gate): low polyreactivity

QVQLVESGGGLVQAGGSLRLSCAASGSTFAWYAMGWYRQAPGKERELVAAISRTGRTYYADSVKGRFTISRDNAKNSVYLQMNSLKPEDTAVYYCAAKSIYDGFPYYLFDYWGQGTQVTVSS
polyreactivity (PSR sort gate): high polyreactivity

QVQLVESGGGLVQAGGSLRLSCAASGSIFDRYVMGWYRPAPGKERELVAAISKSGGNTYYADSVKGRFTISRDYEKNTVYLQMNSLKPEDTAVYYCNARSGRYYLGYGYWGQGTQVTVSS
polyreactivity (PSR sort gate): high polyreactivity

QVQLVESGGGLVQAGGSLRLSCAASGIIFRYNAMGWYRQAPGKERELVAAISRSSGSTYYADSVKGRFTISRDNAKNTVYLQMNSLKPEDTAVYYCAAYPRYRVEYWGQGTQVTVSS
polyreactivity (PSR sort gate): high polyreactivity

PVQLQESGGGLVQAGGSLRLSCAARGNIFDADIMGWYSQAPGKERELVACIADGGSTNYAHSVKGRFTISRDNAKNTVYLHMNSVKPEDTAVYYCAAIAYPDIPTCFDYYSDYFFRGQGTQVTVSS
polyreactivity (PSR sort gate): low polyreactivity

QVQLVEAGGGLVQAGGSLRLSCASSGNTFYPYAMGWYRQAPGKERELVAVITSGTDTYYADSVKARFTISRDNAKNTVYLQMNSLKPEDTAVYYCAASLYWRYGYWGQGTQVTVSS
polyreactivity (PSR sort gate): high polyreactivity

QVQLVESGGGLVQAGGSLRLSCAASGSIFSLNAMGWYRQAPGKEREFVAASGGGSTYYADSVKGRFTISRDNAKNTVYLQMNSLKPEDCAVYYCAARVLTDELDYWGQGTQVTVSS
polyreactivity (PSR sort gate): low polyreactivity

QDQLVDSGGGLVQAGGSLRLSCAASGSTFGPYPMGWYRQAPGKERELVATISSGGSTYYADSVKGRFTISRDNAKNTVYLQMNSLKPEDTSVYDCAARYWSIYDYWGQGTQVTVSS
polyreactivity (PSR sort gate): low polyreactivity

QVQLVESGGGLVQAGGRLRLSCAASGRTFANYARGGYRQAPGTERELVAAITSGGRTYYADSVKGRFTISRDNAKNTVYLQMNSLKPEDTPVYYCAAEITYLYDYWGQGTQVTVSS
polyreactivity (PSR sort gate): high polyreactivity

QVQLVESGGGIVQAGGSLRLSCAASGRIFGRYAMGWYIQAPGKERELVAAISRSGGSTYYADSVKGRFTISRDNAKYTVYLQMNSLKPEDTAVYYCNAKYVRAGDTYDYWGQGTQVTVSS
polyreactivity (PSR sort gate): high polyreactivity

QVQLVESGGGLDQEGGSLRLSSAASGRTFRGYAMGWYIQAPGKEREIVDAISRGTVGTYYADSVKGRFTISRDNAKNTVYLQMISLKPEDTAVYYCAADRFANFSNLRLGYYSWGQGTQLTVSS
polyreactivity (PSR sort gate): low polyreactivity

QVQLVESGGGLVQAGGSLRLSCAASGSTFWSYAMGWYRQAPGKERELVASISRRGGSTSYADSVKGRFTISRDNAKNTVYLQMNSLKPEDTAVYYCAARLLRTTKPRSGYGYWGQGTQVTVSS
polyreactivity (PSR sort gate): high polyreactivity

QVQLVESGGGLVQAGGSLRLSCAASGSTFWFNAMGWYRQAPGKERELVAAISGRGGNTYYADSVKGRFTISRVNAKNTVYLQMYSLKPEDTAVYYCNAVYLYAYRVRYYYGRYDYWGQGTQVTVSS
polyreactivity (PSR sort gate): high polyreactivity

QVQLVESGGGLVQSGGSLRLSCAASGRIFARNAMGWYRQAPGKEREFVAAITFSGGSTYYADSVKGRFTISRDNAKNTVYLQMNSLKPEDTAVYYCAARSWRVLTREDYWGQGTQVTVSS
polyreactivity (PSR sort gate): high polyreactivity

QVQLVESGGGLVQAGGSLRLSCAASGRTSRHYAMGWYRQAPGKERELVAAISRSGGSTYYADSVKGRFTISRDNAKNTFYLQMNILKPDDSAVYYCNKDLKYYTSTYDYWGQGTQVTVSS
polyreactivity (PSR sort gate): high polyreactivity

QVQLVESGGGLGQAGGSLRLSCAASGFTFRKYVMGWYRQAPGKERALVAAITSGGSTNYADSVKGRFTISRDNAKNTVYLQMNSVIPEDTAVYYCATVPGARVHYPTGDYWGQGTQVTVSS
polyreactivity (PSR sort gate): high polyreactivity

QVQLVESGGGLVQAGGSLRLSCAASGLTFWYYGMGWYRQAAGKERELDAAISKTGGRTYYADSVKGRFTISRDNAKNTVYLQMNSLKPEDTAVYYCAADTDVLKGTTGFEYWGQGTQVTVSS
polyreactivity (PSR sort gate): low polyreactivity

QVQLVESGGGLVQAGGSLRLSCAPSGSIFVHNAMGWYRQAPGKERELVAALDGGGGTYYADSVKGRFTISRDNAKNTVYLQMNSLKPEDTAVYYCAARYFHHYWGDLEVEFDYWGQGTQVTVSS
polyreactivity (PSR sort gate): low polyreactivity

QVQLVESGGGLVQAGGSLRLSCAASGFIIPVYAMGWYRQAPGKERELVAAITYSGARTYYADSVKGRFTISRDNAKNTVYLQMNSLKPEDTAVYYCAAAPGYLKYSPGHYGYNYWGQGTQVTVSS
polyreactivity (PSR sort gate): high polyreactivity

QVQLVESGGGLVQAGGSLRLSCAASGRTFYSYARGWYRQAPGKERELVAAINSGGDTYYADSVKGRFTISRDNAKNTVYLQMNSLKPEDTAVDYCAADIEVQYITLGVELPYDYWGQGTQVTVSS
polyreactivity (PSR sort gate): low polyreactivity

QVQLVESGGGLVQAGGSLRLSCDASGRIFVRYTMGWYRQATGKERELVAAITRSGGTYYADSVKGRFTISRDNATNTVYLQMNSLKPEDTAVYYCAADSWLSLWYEYWGQGTQVTVSS
polyreactivity (PSR sort gate): low polyreactivity

QVQLQESGGGLVQAGGSLRLSCAASGSISGPHVMGWSRQAPGKEREFVAAINVGANTYYADNVKGRFTISRDNAKNTVYLRMNSLKPEDTAVYYCAAVYYGDIGHEYWGQGTQVTVSC
polyreactivity (PSR sort gate): low polyreactivity

QVQLVESGGGLVQAGGSLRLSCAASGFIFDVYAMGWYRQAPGKERELVAAITGSGSITYYADSVKGRFTISRDNAKNTVYLQMNSLKPEDTAVYYCAALGPTQDRDYWGQGTQVTVSS
polyreactivity (PSR sort gate): high polyreactivity

QVQLVESGGGLVQAGGSLRLICAASGRIFKWYVMGWYRQAPGKERELVAAISRSGDSTNYADSVKGRFTISRDNAKNTVYLQMNSLKPEDTAVYYCAVGYRYLKWVDYWGQGTQVTVSS
polyreactivity (PSR sort gate): high polyreactivity

QVQLVESGGGLVQAGGSLRLSSAASGSTFRRNAMGWYRQAPGKQRELVAAITWRGTSTYYADSVKGRFTISRDNAKNTVYLQMNSLKPEDTAVDYCAAPWVVRRTAYDYWGQGTQVTVSS
polyreactivity (PSR sort gate): high polyreactivity

QDQLVESRGGLVQAGGSLRLSSAASGFTLVVNAMGWYRQAPGKERELVAAITSRCGGTYYADSVKGRFTISRDKANNSVYLQMNSLKPEDTAVYYCAAPSLIVSTHRYGYWGQGTEVTVSS
polyreactivity (PSR sort gate): low polyreactivity

QVQLVESGGGIVQAGGSLRLSCAASGNNFSLNGMGWYRQAPGKEREFLAAITWSVGSTYYAYSVNGRLTISRDNAKNTVYLQMNSLKPEDTAVYDCAATVSDLYKNEYYYWGLGTQVTVSS
polyreactivity (PSR sort gate): low polyreactivity

QVQLVESGGGLVQAGGSLRLSCAASGRIFSYYAMGWYRQAPGKERELVAAISRTGGTTYYADSVKGRFTISRDTAKNTVFLQMNSLKPEDTAVYYCNAVKAPYLRYDYWGQGTQVTVSS
polyreactivity (PSR sort gate): high polyreactivity

PVQLVESRGGLVQAGGSLRLSCAASGIIFQRYAMGWYRQAPGKERELVAAINFSGGSTYYADSVKGRFTISRDNAKNTVYLQMNSLKPEDTSVYYCARAGRYAAYSPFYYWGQGTQVTVSS
polyreactivity (PSR sort gate): high polyreactivity

QVQLVESGGGLVQAGGSLRLSCAASGLILTWNAMGWYRQAPGKERELVAAISRSDGITYYADSVKGRFTISRDTAKNTVYIQMNSLKPEDTAVYYCAKDGVPKGRGGAYYEYDYWGQGTQVTVSS
polyreactivity (PSR sort gate): low polyreactivity

QVQLVESGGGLVQAGGSLRFSCAASGRTFFGYAMGWYRQAPGKERELVAAISRGGTTHYADSVKGRFTISRDNAKNTVYLQMNSLKPEDTAVYYCAADGYPYIWSGIEYDYWGQGTQVTVSS
polyreactivity (PSR sort gate): high polyreactivity

QVQLVESVGGLVQAGGSLRLSCAASGRIFYFYAMGWYRQAPGKERELVASISSGSSTNYADSVKGRFTISRDNAKNTVYLQMNSLKPEDTAVYYCAAQPWHGSRPRSYYWGQGTQVTVSS
polyreactivity (PSR sort gate): high polyreactivity
